Patent US20210403582A1 (JACOBIO PHARMACEUTICALS, published 2021)
Read-outs that look alike come from different tables or passages of the source.

T1: human OSM (human, UniProt P13725 26-221, limits assumed)
T1 sequence (looked up): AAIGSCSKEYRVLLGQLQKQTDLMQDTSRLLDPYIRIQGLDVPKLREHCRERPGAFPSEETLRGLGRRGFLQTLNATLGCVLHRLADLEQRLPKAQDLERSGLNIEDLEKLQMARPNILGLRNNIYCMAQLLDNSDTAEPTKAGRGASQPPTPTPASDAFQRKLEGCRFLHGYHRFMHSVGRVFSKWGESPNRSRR

T2: human CNTF (human, UniProt P26441 1-200, limits assumed)
T2 sequence (looked up): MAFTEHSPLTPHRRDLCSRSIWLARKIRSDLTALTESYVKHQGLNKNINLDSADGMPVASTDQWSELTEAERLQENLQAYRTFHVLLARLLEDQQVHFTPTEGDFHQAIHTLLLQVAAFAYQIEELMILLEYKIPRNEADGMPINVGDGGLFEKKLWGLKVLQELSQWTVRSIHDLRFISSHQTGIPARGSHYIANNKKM

B1: 5D8 antibody (positive control) (antibody, human IgG1, kappa, V domains shown)
VH: QVQLQESGGGLVKPGGSLRLSCAASGFTFSHAWMHWVRQAPGKGLEWVGQIKAKSDDYATYYAESVKGRFTISRDDSKNTLYLQMNSLKTEDTAVYYCTCWEWDLDFWGQGTMVTVSS
VL: DIVMTQTPLSSPVTLGQPASISCRSSQSLLDSDGHTYLNWLQQRPGQPPRLLIYSVSNLESGVPDRFSGSGAGTDFTLKISRVEAEDVGVYYCMQATHAPPYTFGQGTKLEIKR
B2: P36-033 antibody (antibody, mouse IgG1, kappa, V domains shown)
VH: EVMLVESGGGLVQPGGSRRLSCAASGFTFSSYPMFWVRQTPEKRMEWVAYISNGGDSTYYPDTVKGRFTVSRDNAKNTLYLQMSSLKSVDTAIYYCVRPSARYDEWFAYWGQGTLVTVSA
VL: DIVMTQSHKFMSTSVGDRVSITCKASQDVSNAVAWYQQKPGQSPRLLIYWASFRHTGVPDRFTGSGSGTEYTLTISRVQAEDLALYYCQQHYNTPYTFGGGTRLEIKR
notes: From a phage display library of immunised mice; full-length chains with mouse constant regions; also called P36-033 mAb

Experiments:
human LIF protein [1] = target: T3, human LIF protein (human, UniProt P15018 23-202); experiment: ELISA, human LIF coated at 1 µg/mL, A450
T3 construct: Bought recombinant protein (Sino Biological / Yiqiao Shenzhou 14890-HNAH) in most assays; also called recombinant human LIF protein; rhLIF
Method: (§1) The recombinant human LIF protein was diluted to 1 μg/mL, was coated on the enzyme label plate, 100 μL of the protein was added into every well, and incubated overnight in 4° C. The enzyme label plates were taken out next day, and the liquid was discarded, and were washed with PBST three times and blocked with 2% BSA in PBS for 1 h at room temperature, then washed with PBST three times, and added anti-human LIF antibodies 38E10E1C11, 5D8 and P36-033 at different concentrations and incubated for 1 h at room temperature. The liquid was discarded, and the plates were washed with PBST four times. The plates were added with HRP-labeled goat anti-mouse Fab antibody or goat anti-human FC antibody and incubated for 1 h at room temperature. Then the liquid was discarded, and the plates were washed four times with PBST and incubated with TMB colored solution in 10 minutes at room temperature. Stop color development by adding 2 mol/L H₂SO₄, and the absorption value at 450 nm is quantitated using an automated plate photometer, and the results were shown in FIG. 1.

human LIF protein [2] = target: T3, human LIF protein; experiment: ELISA, human LIF coated at 1 µg/mL, A450; remark: listed apart in the source
Method: as §1

[3] = target: T4, recombinant mouse LIF protein (mouse, UniProt P09056 24-203); experiment: ELISA, mouse LIF coated at 1 µg/mL, A450
Method: (§2) The recombinant mouse LIF protein (purchased from ACRO Biosystems) was diluted to 1 μg/mL, and was coated on the enzyme label plate, 100 μL of protein was added into every well, and incubated overnight in 4° C. The enzyme label plates were taken out next day, and the liquid was discarded, and were washed with PBST three times and blocked with 2% BSA in PBS for 1 h at room temperature, then washed with PBST three times, and added anti-human LIF antibodies 38E10E1C11, 5D8 and P36-033 at different concentrations and incubated for 1 h at room temperature. The liquid was discarded, and the plates were washed with PBST four times. The plates were added with HRP-labeled goat anti-mouse Fab antibody or goat anti-human FC antibody and incubated for 1 h at room temperature. Then the liquid was discarded, and the plates were washed four times with PBST and incubated with TMB colored solution in 10 minutes at room temperature. Stop color development by adding 2 mol/L H₂SO₄, and the absorption value at 450 nm is quantitated using an automated plate photometer, and the results were shown in FIG. 2.

[4] = target: T4, recombinant mouse LIF protein; experiment: ELISA, mouse LIF coated at 1 µg/mL, A450; remark: listed apart in the source
Method: as §2

human OSM [5] = target: T1, human OSM; experiment: ELISA, human OSM coated at 1 µg/mL, A450, bar chart of eight antibody concentrations
Method: (§3) The human LIF, human IL-6, human OSM, human CNTF (purchased from Sino biological) were coated on the enzyme label plate at a concentration of 1 μg/mL separately, and the anti-human LIF antibodies 38E10E1C11, P36-033 and 5D8 at different concentrations were added separately and incubated for 1 h at room temperature. Then the plates were washed four times with PBST and incubated with HRP-labeled goat anti-mouse FC secondary antibody for 1 h at room temperature. Then the plates were washed four times with PBST and added with TMB colored solution for color development at room temperature for 10 minutes. The absorption value at 450 nm is quantitated by the enzyme-labeling measuring instrument, and the data was analyzed and plotted using Origin pro 9 software.

human CNTF [6] = target: T2, human CNTF; experiment: ELISA, human CNTF coated at 1 µg/mL, A450, bar chart of eight antibody concentrations
Method: as §3

human OSM [7] = target: T1, human OSM; experiment: ELISA, human OSM coated at 1 µg/mL, A450
Method: as §3

human CNTF [8] = target: T2, human CNTF; experiment: ELISA, human CNTF coated at 1 µg/mL, A450
Method: as §3

human IL-6 = human IL-6 (human, UniProt P05231 30-212, limits assumed); experiment: ELISA, human IL-6 coated at 1 µg/mL, A450
Method: as §3

human LIF protein [9] = target: T3, human LIF protein; experiment: competition ELISA: human LIF coated at 1 µg/mL, GP130-Fc 20 µg/mL added together with the antibody, A450
Method: The recombinant human LIF protein was coated on the enzyme label plates at a concentration of 1 μg/mL, GP130 protein (expressed fusedly with human FC) at a concentration of 20 μg/mL was added (50 μL/well), and the anti-human LIF antibodies P36-033 and 38E10E1C11 at different concentrations simultaneously were added separately (50 μL/well), and incubated for 2 h at room temperature. At the same time, the control wells added with antibodies and without GP130 protein were set. Incubated for 2 h at room temperature. After washed four times with PBST, incubated with HRP-labeled goat anti-mouse FC secondary antibody for 1 h at room temperature. Then the plates were washed four times with PBST and added with TMB coloured solution in for 10 minutes. The absorption value at 450 nm is quantitated using an enzyme-labelling measuring instrument, and the data was analyzed and plotted using Origin pro 9 software.

human LIF protein [10] = target: T3, human LIF protein; experiment: competition ELISA: human LIF coated at 1 µg/mL, GP130-Fc 12 µg/mL added together with the antibody, HRP anti-human Fc, A450

T3 sequence (P15018 23-202 limits assumed): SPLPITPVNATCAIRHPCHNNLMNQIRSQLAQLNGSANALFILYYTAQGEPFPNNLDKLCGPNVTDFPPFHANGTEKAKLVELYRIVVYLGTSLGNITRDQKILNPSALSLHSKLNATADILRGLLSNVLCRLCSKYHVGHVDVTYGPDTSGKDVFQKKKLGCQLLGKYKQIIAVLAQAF
Sequence of human IL-6 (P05231 30-212 limits assumed): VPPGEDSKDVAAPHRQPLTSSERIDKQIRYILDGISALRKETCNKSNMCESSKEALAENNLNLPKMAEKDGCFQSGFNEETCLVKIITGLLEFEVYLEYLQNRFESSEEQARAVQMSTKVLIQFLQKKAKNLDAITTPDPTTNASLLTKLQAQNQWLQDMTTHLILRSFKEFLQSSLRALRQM

Binder	EC50 (read off the curve) (human LIF protein [1]) [µg/mL]	EC50 (read off the curve) (human LIF protein [2]) [µg/mL]	EC50 (read off the curve) [3] [µg/mL]	EC50 (read off the curve) [4] [µg/mL]	binding result (human OSM [5])	binding result (human CNTF [6])	binding result [4]	binding result (human OSM [7])	binding result (human CNTF [8])	binding result (human IL-6)	IC50 (read off the curve) (human LIF protein [9]) [µg/mL]	IC50 (read off the curve) (human LIF protein [10]) [µg/mL]
B1	~0.2	~0.8	~0.3	~0.4	binds	binds						
B2		~0.05					binds	no binding (tested: 25 ug/ml)	no binding (tested: 25 ug/ml)	no binding (tested: 25 ug/ml)	~0.1	~0.1
